In the NTF2 design screens of Basanta et al. (2020):

Assay: protease stability score; higher = more stable; yeast display proteolysis, trypsin and chymotrypsin;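 further: relative to predicted unfolded state with 0 unfolded-like and 1 meaning tenfold more protease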

In order of rising protease stability score:
1. SEDEELMRRAEDFIIETWETGDWELLHHLADPRVQLDINGRTEHGRENMNEALRRWLDDLGFDHHRVRKKHVIDGRVILDFEIFQGDKEVHLHLHNVVVNGRMKSVHFKLQDN  -0.052
2. DELHEERERASEVARRWVLTGNEEMLVQLADPEVRLHFNGVDFVGRETIHETLRRIHELWGVDRIEVRLKTVHIYDGVVDVHVDLHVGDKEIRDDIHLKKFNGRWEMTTRHVH  0.348
3. SEHDDLIRHYAERIRKSLLTGDEHDLTELLDPNTYFEVRIGDFTLKAHGWERVHEVLDMINENLGIKHDDIQHIEWYGDKIHIDTRVRIGDKEIHTEVIIVVINGKVSKIEHRVI  0.45
4. SEVQETIDHLVREVLHDFRTGDERRLEENMDPNAKSIFDGRESHGREKVSKMIHDFLEEMGFKHMELKEREVVGNKVEIHGRVIIGDKEFELHLHSQKIDGRWVLDSIRIE  0.52
5. HEEHEKLRQLIEWYLEMLRTGDEESWLHLADPHVRNDVIYDGRHFQSHGRDRALDLLRLMLDLLGAKHLEVKRYRVIDGRVELDGRSRVGDKYQEMHLHLDVFNGRIHEMRIEIR  0.58
6. SEEEELAERMIRIWQKDIRTGNEESLSKFIDPNVRNEYGDKTHHGRHVFADVIRRILDELGVTNVHSRLTRMEIQGDKVRVDVQINIDGQEYRIEVHFEKVNGRWNVTSWNIR  0.698
7. NKHERDAEHFIKEWWHDVHTGDEDHYLKRLDPNMRVDINGQEFHGREKVLTFFHEHSRHLGIDHLIIDHVRIRVQGNKIEEEVEGENVFNGKRLEVRFHFVARKIDGRWELEHLTVRIS  0.724
8. SKREDKWKHHVEVLIRLWQTGDEDTLKELFDPNVLLLVIYNGRNIHNHGRELAMHWLRYLLEHLGIDHYHIESSSVIGDKVEIKSRVYIGDKTYELDLEIRIIDGRLKSLNVNIE  0.8
9. DEEEEVLKTYLKLLIDALRTGDEHTMTRLIDPHARTHQGDKEIHGRKSMEELNKRYPNVRVDIRHISEVGDKITIDAVLHVGDKRYEIVIIAWKVNGRWEHTEFEFR  0.808
10. SEIWHLAENLSHLWMHKILTGDEDSIRNLLDPNARVHVNGKEVHGREETVKFMRHRVDEMGVDHMHFELKRFEVQGNYAIHHGTLIIHVDGREIRIESTIHLLKVNGRWLITDSSER  0.845
11. DKEEDEFRKAFEIVRHTWKTGDEHLLEKLMDPDARMDVNGVHNHGREEATKTVFEIVEKIKNARLEFKRIEVYDGRIFFHMDWDVNGVRVFVLIISIKVDGRWRHKSYSEDRV  0.856
12. HESEELAKHFSKIMDDLIRTGDEEHFDRLLDPNVKLDVNGRTIHGRERVSEIIHEKNKELGIDQIHVRKQDEHIIGDKLILHIEIIYGDKRIELIIITRKINGKWRIESVELREH  0.876
13. DELERDVKQVWDLLLESSRTGDEEVLDKMLDPNARMKVNGQESHGRHAVELLSERIDHIHHIEIERFRTQGNKIEIDIHIDGEVNGRRIRTHMHVIIRKIDGRWFVESWEMK  0.931
14. TEEEELAHHLVRLLIELWRTGDEEILRHLADPNVKLIYGDKTDHGREKSHRWMKELLDRYDHVEIIIRREEVQGEKAHSDVELVVNINGVREVYEVHLHFIVVNGKIREERIEVR  0.989
15. VEDLREYIRIAEELVKSWITGDWDRLRKLVDPNVRLDVDGVENIGRDHVHRALEEHEKHIRLKDHRIEHIDAVDGKSTMHTRSHFHINGVEHEVNVHMEFVIVNGRVTEMRISIR  1.02
16. DEEEKRERKMAEIWMKSLLTGDEDTLSRLADPNVRNVLIIDGRELNLHGRELMHESLRHLRIEHIRIDEYSIVNGVFHANTTVHGVVGDKRTTVETRIHLWIFDGKFHTIIIIIS  1.03
17. SEEDEIAKHVWERFFKNVLTGDEDTLLRLLDPDTRLIVIIGDKEIHLHGREELSKFLSELRIHHLEITDWVSQGEKARTHVRSDGTVDGKRHHTEMELILIVINGRIKEIRILVR  1.07
18. TEEEEAAKRVFRLLLENAKTGDEDHLRELIDPNVRIHVDGRTLIGMEQFKRFWSEMRVHHWDQKSVDFVNGRVHSDTIINSHVDGQTIHIDVRIIITKIDGQWVVESFSVS  1.17
19. SEDEELSKKAVEDILRNLETGDWETISRMADPHVRVDFNGVDIHGREVMSKMFEDELRDLGVTKVDVRLHDVDSQGDKVIVHHRVHVNGRTEEVEVHATKFNGKWVIKKMTVRVK  1.19
20. HEEEKLARTFSEVVERSLYTGDEDSLKRLMDPHVRMNVNGVRHIGMELAKEWLHRYIRQLGIDHSTIRHSHDEIQGEKVIVRLHGELVYNGVSREVELIIHVNKVNGVWTISELLVILK  1.25
21. DHEEKLSEDISRFLLELYLTGDPERLAKNADPNTKLIIDINGRHEDIHGREYIYKWSLDWFRKAGVTRVEFDLRSMDVQGEKAVIHGVNRVGDKDRHMTEIWIVVNGKLKEVRVKLE  1.28
22. TEEERDTKIAVDLFEEYSRTGNEDNMRELADPNVRLKINGVDYVGWKHMTKLLNHWRVKTVNIRHVEIQGDYARSDVEEEVLINGKEDRRTSRLILFKVNGRWIIKSLEFD  1.28
23. DETEKHVKHLTELWMHAWLTGDEDLLEHLLDPHTRVIIFYGDKNYHFHGRESIHIRFYELGAKHVRDFRIRDSKIQGNKLLLNGEENGLVNGRQTETEVRIELVWIDGRVHSIVVRIH  1.3
24. DEEEKHWTTLIEIHFKDLLTGDEDSNLHLADPDYRLRMHFDGRELIFIGREEIHKFWHETVHKFKNMRIEINDSDIQGDKFDVDIAIRIDGVEIRYRLIIILFNGRTHRQEVHNI  1.3
25. DEEEERTERVSQLFWELFLTGDEEELFKLVDPHVRSHVGDKDYHGRETAHEIWHRIKNVRMRLDHVELRIVNGRADLHVRGKLIIGDKKVELNIEILVVKVNGQWLVERIRVETK  1.31
26. DDKKQFLDHAINRLIRALLTGDWHILFRLLDPHVRMIQGDKEYHGRELWREIYFQDIQRVPNLTFLIKDYHIDLQGDKLRIEIEGELIIDGVNIHMEIISEHTKVNGRWSIHHLEIRHQ  1.33
27. SEDEHKLRTMLELWLEAHRTGDEDLLRKLMDPDVRIHVGDKDFHGWDHEIELFRKELKRLGIDKIDIEVKRIDLQGDKVILEVIVHINGKEIHMIIYANKFNGRWHVKQIEIR  1.35
28. DEEHEKLYQDLEYWVKMVRTGDEDSHLEYADPDVRLDVNGQQFIGREEFTRFFRTLSRELGLDNINFRIKDIRNVGDKIDIDGHREINGRRVRIILVAWKFNGRWYLHEERIR  1.39
29. DERRKLEEDILELMLRVFETGDFDTFIKFADPNTRSDVNGRQYHGREWLAEMWKITLEELGADHFELTSYDVFNGRVHLRIRVHVGDKQRSMTIEIQVINGKVQSIRIDIE  1.4
30. DELEKLLKLAMEMSLKLFETGDEESLHRLIDPHVRMEIVQGDKFIELHGREDVVRAMKEFRKKFPNLKVELEDHDIQGDKVIWHSVIHVGDKELELIIISLKFDGRWVLESVELKHR  1.4
31. SEEEKEAQHLLELENDARRTGDEDFSREMVDPNVKIDINGRDLHGWDVAEELMRQADHVHHEHIRQVEVQGDKLIVDMEINGHINGKSFDIKIHLFIWKYNGKWFVRKIDVK  1.44
32. HEDEHQAEHLLEAVFHIFLTGDWRSLHELVDPNVRFDVNGRRTHGREDLIRFSRELRIHDVRFHRVKLDVYDGRVEMRIDGRIDGEINGRRTDVRSIIEIEFIKFNGQWRVESISLNFH  1.44
33. DEEERLTRDWAKQWIHFLETGDEDRLMELADPHVRIDVNGQEFHGREQFNKFMSHLTTHARFETKEVQVIGNKTHIDTRMSIDGKTTETLVILIIWNGRLKELRIHHH  1.47
34. EEDRRMVEDAIRIFLKSLRTGDEESLTRMVDPHVKYHQGEYHMHGREELVRYFAERWEELGVENINTDMRPTHIEFQGEKIIIMGRYHLHVNGRESHTRIEFIATKIDGQWRLHKIRFE  1.53
35. SEYEEWSERHLKHWEDARDTGDFDSETDLLDPHMRFQLIIGEKRVRFHGMEVLIEHVLRFKNATVREQKSHVEVIDGRIYIRLEGRYDVNGKDFDVEIIIISEKVNGRWILRYIEIRIH  1.55
36. DHEEEEMRDRFKVLMRALLTGDFEELIRQMDPDYRLDINGRELIGREEYRKHLEKQLKHWRWKRIDVKHVETQGDKLHARINVHGDIDGRDINTETDWHLEVIDGRVRSEKISIR  1.58
37. SELEHWAERLTRILIHSLYTGDEESLLKLADPRVRNDVNGVHVVGMEWFLKVWNKYRDELRIHHIEVRDIKIINGVAHSTVREDGEINGKKLDVETHVELDTVNGRLRIVHIRIV  1.58
38. DEDEEEAEERVKEWIKALRTGDEDHILELVDPNDRFIINGVHLHGREFLLRWLRELRVDDVEVKTIKFVDGVAHVDTKMRVTVDGRETELETRLIWKKFDGRWFIESHRIR  1.62
39. DEDEKFTKEVIELWIRALRTGDEHTLMRLMDPHVRFEDENYSLHGREDVSRWLIKLLVHLRLEESDEHDSKIIGDKAHLHITSNHIFNGKELHMEIHIIVFKINGRWFVHEVRFR  1.72
40. DEEEKHDTFMTEIFKEIYQTGDEDALATMADPDTRLIIRIGDYTEENHGWKFFIEKLMRLIRKVKNLRYIETRDHVFDGQSHIHGILIINGRKREVEIIIYIFDGRIKSIEIRIV  1.79
41. DERTEHSEENVKLFIEALRTGDFKTLLRLVDPHVRVIVIINGKEINNHGWEEFLRWMREEFERYPNLRVKVRHLDIQGDFVRVEGHLEVGDKSHRIHLHLLIINGVVELELYIFR  1.92
42. HEDEELMKELLKRWLNMLETGDWQNLAHYADPHVRLEFDGREIHGRTEVYRVLVEFHDKIKGMTYILKHSFYVGDKIHIKGSIRIGDKEYDTEIHIIIVDGRLKEVRVEHR  1.98
43. HDQDESAKWVIEVLIRASYTGDFDMFIKYFDPNAKSLIDGKTFHGREDLKRHMDRFDHITHVRFHLRDRKMVGDKLIIHGQLEVHGYQGDWEIHMTRDVHIILRKVDGRWHIEELRLE  2.18
44. DEETEISRRALKIFLDTIHTGDPRELKENLDPSVRIIINGVHYHGRESFEHVLERVEKSAGVDRVHVELRDFRIYGDKVEVEVTNHFNGRTEIDHFILRKVNGRWYIHEVEFE  2.18
45. SEEKEIAERFIEMALQVWLTGDERSMVDMVDPHVLNIVGDKEHHGREILLKFLHDFKERFPNVRVKHRDVHIDLQGDKMEVRIDGRIHFDGKQFRLEIIIITTKIDGRWRVTHWEVRIE  2.19
46. DEEEEHLRTMWEIWMHALRTGDEDFMTNLADPNVRVLILQGDKEEESHGRDELSRLLREIRIEEFTITDVRIQGDKSEADVHVVGQIDGRRTRTKIRISFIIFNGRLHSIRFEIH  2.2
47. NELTEVIRYWIHLWLTQLFTGNEEIIRRLADPNARFEVNGREIHGMDEWVDILKRLGMRFHHFHVDTIEIIDGVIHVQSRFDIDINGRRVNEETYHVIEKINGRWTLRTMELR  2.31
48. DEKEKESEDLAEIILKLWATGDEEIFEHLLDPNVWMIDEDEVFHGMEKVSEFLLRLREKLGVDHFRVHHIEIQGDKVHMDIRLEVNGKILKTHIRVIIINGRIHTVEIRIH  2.37
49. DEKDELMERIARLMMEYLDTGDEENLNKLADPNVKIDIRIGDKVIDDHGMENLLHRLRHIRSNLRVHNFHAQGDFVKIDTRVTFHVNGQDIHHTVEVRLFIVNGKIHRIEFIFR  2.6
50. DEEEELMRSFLRLWFEAMITGDEHTLKELIDPDVRIEQGDKTHHGWEEFLRKFHKIKNMTIRHVELNHEHVQGDKIDLIITLHGHINGRHEELEVRLHARKVDGRWKMTRIHYQ  2.66
